Here are results for six molecules from patent US20190055304A1 (published 2019).

What is called EC50 is the concentration at which the effect is half-maximal.

Assay [1] concerns the target T1, full length DNABII protein, HU-beta, from Staphylococcus aureus (Staphylococcus aureus, UniProt Q5HFV0 1-90).
T1 construct: mature; also called HU Sa; HU-beta of S. aureus; not shown: poly-histidine tag
T1 sequence: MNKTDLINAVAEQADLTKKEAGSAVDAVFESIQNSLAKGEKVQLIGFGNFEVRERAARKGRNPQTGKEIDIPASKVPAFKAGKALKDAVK
In words: adsorption ELISA, antigen coated; given as 'affinity', estimated as half-maximal binding concentration.

In assay [2] the target is T2, DNABII protein from Haemophilus influenzae (IHF) (Haemophilus influenzae).
T2 construct: mature; also called H. influenzae; IHF from Haemophilus influenzae
T2 sequence (P43723 whole entry): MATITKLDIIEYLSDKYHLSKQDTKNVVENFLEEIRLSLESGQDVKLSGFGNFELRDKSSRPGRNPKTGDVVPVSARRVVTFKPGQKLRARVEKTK
The assay is described as follows: adsorption ELISA, antigen coated; printed as 'Affinity (pM)', half-maximal binding concentration. In general terms: An ELISA detects its analyte on a solid surface through an enzyme-linked reagent.

Assay [3] concerns the target T3, DNABII protein from Acinetobacter baumannii (Acinetobacter baumannii).
T3 construct: mature
The description is as above.

The target in assay [4] is T4, DNABII protein from Pseudomonas aeruginosa (IHF-alpha by the legend of FIGS. 7A-7C) (Pseudomonas aeruginosa, UniProt Q51472 2-100).
T4 construct: mature; also called Pa; P. aeruginosa; not shown: poly-histidine tag
T4 sequence: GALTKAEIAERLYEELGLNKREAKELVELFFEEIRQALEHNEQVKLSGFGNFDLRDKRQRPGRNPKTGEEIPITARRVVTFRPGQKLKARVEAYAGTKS
The assay is described as follows: ELISA at pH 3.5; printed as 'Affinity (nM)'.

The target in assay [5] is T5, DNABII protein from Klebsiella pneumoniae (IHF; IHF-alpha by the legend of FIGS. 7A-7C) (Klebsiella pneumoniae, UniProt A6TAI1 1-99).
T5 construct: also called Kp; K. pneumoniae
T5 sequence: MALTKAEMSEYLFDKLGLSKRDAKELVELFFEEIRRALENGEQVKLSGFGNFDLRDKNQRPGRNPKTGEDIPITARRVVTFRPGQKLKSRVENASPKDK
In words: ELISA at pH 3.5; printed as 'Affinity (nM)'.

For assay [6], the target named is T1, full length DNABII protein, HU-beta, …. In words: ELISA at pH 3.5; printed as 'Affinity (nM)'.
For assay [7], the target named is T4, DNABII protein from Pseudomonas …. In words: ELISA at pH 6.5; printed as 'Affinity (nM)'.
Assay [8] addresses T5, DNABII protein from Klebsiella …. In words: ELISA at pH 6.5; printed as 'Affinity (nM)'.
The target in assay [9] is T1, full length DNABII protein, HU-beta, …. The assay is described as follows: ELISA at pH 6.5; printed as 'Affinity (nM)'.
The target of assay [10] is T4, DNABII protein from Pseudomonas …. The assay is described as follows: ELISA at pH 7.5; printed as 'Affinity (nM)'.
Assay [11] has as its target T5, DNABII protein from Klebsiella …. The assay is described as follows: ELISA at pH 7.5; printed as 'Affinity (nM)'.
Assay [12] addresses T1, full length DNABII protein, HU-beta, …. In words: ELISA at pH 7.5; printed as 'Affinity (nM)'.
Assay [13] concerns the target T4, DNABII protein from Pseudomonas …. In words: ELISA at pH 4.5; printed as 'Affinity (nM)'.
Assay [14] concerns the target T5, DNABII protein from Klebsiella …. In words: ELISA at pH 4.5; printed as 'Affinity (nM)'.
Assay [15] addresses T1, full length DNABII protein, HU-beta, …. In words: ELISA at pH 4.5; printed as 'Affinity (nM)'.
Assay [16] concerns the target T4, DNABII protein from Pseudomonas …. In words: ELISA at pH 2.5; printed as 'Affinity (nM)'.
The target in assay [17] is T5, DNABII protein from Klebsiella …. In words: ELISA at pH 2.5; printed as 'Affinity (nM)'.
For assay [18], the target named is T1, full length DNABII protein, HU-beta, …. In words: ELISA at pH 2.5; printed as 'Affinity (nM)'.
Assay [19] concerns the target T4, DNABII protein from Pseudomonas …. In words: ELISA at pH 5.5; printed as 'Affinity (nM)'.
Assay [20] addresses T5, DNABII protein from Klebsiella …. In words: ELISA at pH 5.5; printed as 'Affinity (nM)'.
Assay [21] addresses T1, full length DNABII protein, HU-beta, …. In words: ELISA at pH 5.5; printed as 'Affinity (nM)'.
For assay [22], the target named is peptide 19, SGSG … (Staphylococcus aureus). The assay is described as follows: ELISA, biotinylated peptides on streptavidin coated plates.
In assay [23] the target is peptide 13, SGSG … (Staphylococcus aureus). The assay is described as above.
Assay [24] addresses peptide 12, SGSG … (Staphylococcus aureus). The assay is described as above.
The target of assay [25] is peptide 14, SGSG … (Staphylococcus aureus). Described as above.
Assay [26] concerns the target peptide 20, SGSG … (Staphylococcus aureus). The description is as above.
Assay [27] has as its target peptide 6, SGSG … (Staphylococcus aureus). Described as above.
For a further assay, the target named is peptide 26, […] (Staphylococcus aureus). The assay is described as above.
In assay [28] the target is peptide 18, SGSG … (Staphylococcus aureus). Described as above.

T3 sequence (B7I698 whole entry): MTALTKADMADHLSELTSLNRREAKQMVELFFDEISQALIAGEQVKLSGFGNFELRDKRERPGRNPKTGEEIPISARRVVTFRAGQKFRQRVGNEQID

B1: TRL1337 (antibody, V domains shown)
VH: QVQLLESGPGLVKPSETPSLTCTVSGGSIRSYYWSWIRQPPGKGLEWIGYIYYSGSTNYNPSLKSRVTISVDMSKNQFSLKLSSVTAADTAMYYCARVYGGSGSYDFDYWGQGTLVTVSS
VL: DIVLTQSPSASGSPGQSVTISCTGTSSDVGGYNYVSWYQQLPGKAPKLMIYEVTKRPSGVPDRFSGSKSGNTASLTVSGLQAEDEADYYCSSFAGSNNHVVFGGGTKLTVL
B1: the EC50 in assay [1] was 6000 pM.

B2: TRL1068 (antibody, V domains shown)
VH: QVQLVESGPGLVKPSETLSLTCRVSGDSNRPSYWSWIRQAPGKAMEWIGYVYDSGVTIYNPSLKGRVTISLDTSKTRFSLKLTSVIAADTAVYYCARERFDRTSYKSWWGQGTQVTVSS
VL: DIVLTQAPGTLSLSPGDRATLSCRASQRLGGTSLAWYQHRSGQAPRLILYGTSNRATDTPDRFSGSGSGTDFVLTISSLEPEDFAVYYCQQYGSPPYTFGQGTTLDIK
For the molecule B2, the EC50 in assay [2] came to 5000 pM; in assay [3], 10 pM; in assay [4], 260 pM; in assay [5], 3000 pM; in [6] it was 360 pM; in assay [7] it was 5 pM. For the same molecule, the concentration for a half-maximal effect (EC50) in assay [8] turned out to be 6 pM; in assay [9], 12 pM; in assay [10], 5 pM; in [11] it was 6 pM; in assay [12], 10 pM; in assay [13], 9 pM. Moreover, the EC50 in [14] is 50 pM; in [15], 12 pM; in [16], 2100 pM; in assay [17], 2600 pM; in assay [18] it was 3500 pM; in assay [19], 6 pM. The EC50 stood at 9 pM in assay [20] and 12 pM in [21].

B3: TRL1335 (antibody, V domains shown)
VH: QVQLVESGAEVKKPGESLKISCKGSGYNFTSYWIGWVRQMPGKGLEWMGVIYPDDSDTRYSPSFKGQVTISADKSISTAFLQWSSLKASDTAVYHCARPPDSWGQGTLVTVSS
VL: DIVMTQSPATLSVSPGERATLSCRASQSVSSNLAWYQQKPGLAPRLLIVGASNRATGIPARFSGSGSGTEFTLTISSLQSEDFAFYYCQQYNNWPFTFGPGTKVDVKR
For B3, the binding result in assay [22], in [23], in assay [24], in [25], in [26] and in assay [27] was “no binding” in each case. In addition, the binding result is recorded as “no binding” with peptide 26, […] and “no binding” in [28].

B4: TRL1361 (antibody, V domains shown)
VH: QVQLVESGGGLAQPGGSLRLSCAASGFIFNTYAMGWVRQAPGKGLEWVSTVSAPGAGTYYTDSVKGRFIISRDNSKNILYLQMNRLRVEDTAVYYCARDQGGPAVAGARIFDYWGQGALVTVSS
VL: DIVLTQSPLSLSVTPGQPASISCKSSQSLLRSDGKTYLCWYLQKPGQPPQLLIYEVSNRVSGVPDRFSGSGSGTDFTLKISRVEAEDVGVYYCMQSIQLRTFGQGTKVEIKR
B4: in [1], the EC50 is 6600 pM.

B5: TRL1338 (antibody, V domains shown)
VH: QLTLRESGPTLVKPTQTLTLTCTFSGFSLSTNGVGVGWIRQPPGKALEWLAIIYWDDDKRYSPSLKSRLTITKDTSKNQVVLTLTNMDPVDTGTYYCAHILGASNYWTGYLRYYFDYWGQGTLVTVST
VL: DIEMTQSPSVSVSPGQTARITCSGEPLAKQYAYWYQQKSGQAPVVVIYKDTERPSGIPERFSGSSSGTTVTLTISGVQAEDEADYHCESGDSSGTYPVFGGGTKLTVL
For B5, the EC50 in assay [1] was 42000 pM.

B6: TRL1330 (antibody, V domains shown)
VH: QVQLVESGTEVKNPGASVKVSCTASGYKFDEYGVSWVRQSPGQGLEWMGWISVYNGKTNYSQNFQGRLTLTTETSTDTAYMELTSLRPDDTAVYYCATDKNWFDPWGPGTLVTVSS
VL: DIVLTQSPSASGSPGQSITISCTGTNTDYNYVSWYQHHPGKAPKVIIYDVKKRPSGVPSRFSGSRSGNTATLTVSGLQTEDEADYYCVSYADNNHYVFGSGTKVTVL
B6: the EC50 in assay [2] was 26 pM; in [3], 17 pM.
